Data set [1] addresses EnvZ(C)(223-289) (Escherichia coli).
Data set [2] deals with the molecule itself. As to the kind of experiment: gel filtration (21.6 kDa) and dynamic light scattering (26.5 kDa) against a calculated molecular weight of 17.6 kDa.

Take EnvZ(C)(290-450) (enzyme): the phosphorylation activity on sub-domain A against that of H6-EnvZ(C)H1 in data set [1] is 5%.

B1: EnvZ(C)(290-450) (enzyme)
chain: TGQEMPMEMADLNAVLGEVIAAESGYEREIETALYPGSIEVKMHPLSIKRAVANMVVNAARYGNGWIKVSSGTEPNRAWFQVEDDGPGIAPEQRKHLFQPFVRGDSARTISGTGLGLAIVQRIVDNHNGMLELGTSERGGLSIRAWLPVPVTRAQGTTKEG
As to B1, in data set [2], the binding result is reported as “no binding”.

The values above are taken from patent US6162627, “Methods of identifying inhibitors of sensor histidine kinases through rational drug design” (University of Medicine and Dentistry of New Jersey, dated 2000).
